These results are taken from PMC1424673.

B1: non-specific pSK control (dsDNA)
DNA 1: CAGGAATTCGATATCAAGCTTATCGATACCGTCGACCTC
DNA 2: GTCGAGGTCGACGGTATCGATAAGCTTGATATCGAATTC
B2: bll5796 ICE-like probe (dsDNA)
DNA 1: CAGGAATTCGATAGCTTAGAACGCTTCTATGCCGACCTC
DNA 2: GTCGAGGTCGGCATAGAAGCGTTCTAAGCTATCGAATTC
B3: blr3904 ICE-like probe (dsDNA)
DNA 1: CAGGAATTCGATACTTTAGAACCGTTTGAAACTGACCTC
DNA 2: GTCGAGGTCAGTTTCAAACGGTTCTAAAGTATCGAATTC

This data set deals with T1, Irr (Bradyrhizobium japonicum, UniProt O85719 1-163).
T1 sequence: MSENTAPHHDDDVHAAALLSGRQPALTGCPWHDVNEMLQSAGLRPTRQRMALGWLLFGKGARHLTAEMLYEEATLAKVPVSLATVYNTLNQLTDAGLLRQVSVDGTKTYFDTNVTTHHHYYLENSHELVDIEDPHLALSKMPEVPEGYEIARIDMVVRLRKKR
Put plainly: EMSA. On the technique in general: A gel shift assay detects complexes by their altered migration in electrophoresis.
Regarding B1, the binding result is listed as “no binding”. On to B2, for which the binding result is “binds”. As for B3, the entry is “binds”.
